Source: article PMC9123286 (The Journal of Cell Biology, 2022)
Values belong to the molecule of their own block, whether it stands above or below them.

Legend:
Get3 D57E-TEV-GFP [1] = target: T1, Get3 D57E-TEV-GFP (S. cerevisiae, UniProt Q12154 1-354, D57E); assay: co-IP; lysates from Δget3 cells ectopically expressing Get3 DE-TEV-GFP and HA-tagged Erg1 full length, ΔC, Δα1 or Δα2; anti-GFP MicroBeads, no detergent, TEV elution; immunoblot, signal normalised to Get3 in the eluate and to the input
T1 construct: Get3, cytosolic ATPase of the GET pathway, S. cerevisiae; ATPase-impaired client trap variant D57E; Captured on anti-GFP beads and eluted by TEV cleavage; the oligomeric state in the lysate was not measured; also called Get3 DE; Get3 D57E (DE); source: yeast (BY4741 background), ectopically expressed, in lysate made without detergent; not shown: TEV site-GFP, C-terminal, kept
T1 sequence (looked up): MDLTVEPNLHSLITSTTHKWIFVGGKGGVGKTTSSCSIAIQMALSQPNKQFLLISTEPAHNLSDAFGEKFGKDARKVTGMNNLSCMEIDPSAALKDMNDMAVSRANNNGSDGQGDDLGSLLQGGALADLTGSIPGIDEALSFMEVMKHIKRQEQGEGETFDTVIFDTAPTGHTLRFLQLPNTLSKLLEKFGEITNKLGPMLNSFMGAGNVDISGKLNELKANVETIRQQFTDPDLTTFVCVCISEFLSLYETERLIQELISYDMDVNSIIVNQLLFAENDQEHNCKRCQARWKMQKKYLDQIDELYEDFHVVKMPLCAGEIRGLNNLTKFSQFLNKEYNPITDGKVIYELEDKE

Get3 D57E-TEV-GFP [2] = target: T1, Get3 D57E-TEV-GFP; assay: co-IP; lysates from cells expressing HA–Erg1 (endogenous promoter) and Get3 DE–TEV–GFP or Get3 DE FIDD–TEV–GFP; anti-GFP MicroBeads, no detergent, TEV elution; immunoblot, signal normalised to Get3 in the eluate and to the input; details: partners not purified

percent reduction of Get3 binding against full-length HA–Erg1 (Get3 D57E-TEV-GFP [1]): 95%
Molecule: N-terminally HA-tagged Erg1 lacking the second predicted helix of the C-terminal hairpin (Δα2) (from UniProt P32476 1-496) (enzyme)

fold enrichment against Get3 DE FIDD (Get3 D57E-TEV-GFP [2]): 5 fold
B1: N-terminally HA-tagged Erg1 (full length) (enzyme, S. cerevisiae, UniProt P32476 1-496, looked up)
chain: MSAVNVAPELINADNTITYDAIVIGAGVIGPCVATGLARKGKKVLIVERDWAMPDRIVGELMQPGGVRALRSLGMIQSINNIEAYPVTGYTVFFNGEQVDIPYPYKADIPKVEKLKDLVKDGNDKVLEDSTIHIKDYEDDERERGVAFVHGRFLNNLRNITAQEPNVTRVQGNCIEILKDEKNEVVGAKVDIDGRGKVEFKAHLTFICDGIFSRFRKELHPDHVPTVGSSFVGMSLFNAKNPAPMHGHVILGSDHMPILVYQISPEETRILCAYNSPKVPADIKSWMIKDVQPFIPKSLRPSFDEAVSQGKFRAMPNSYLPARQNDVTGMCVIGDALNMRHPLTGGGMTVGLHDVVLLIKKIGDLDFSDREKVLDELLDYHFERKSYDSVINVLSVALYSLFAADSDNLKALQKGCFKYFQRGGDCVNKPVEFLSGVLPKPLQLTRVFFAVAFYTIYLNMEERGFLGLPMALLEGIMILITAIRVFTPFLFGELIG
notes: Erg1, squalene monooxygenase, S. cerevisiae; also called HA–Erg1; source: yeast, expressed from the endogenous ERG1 promoter (genomic) or ectopically in Δget3 cells, in lysate; not shown: HA, N-terminal, kept
